In the supplement of paper PMC10598134:
± gives the standard deviation.

Experiment: collision cross section of modified peptide (TIMS, N2, iRT-aligned); higher = larger / more extended gas-phase ion
Outline: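 Values are averages of 1–3 technical replicates of the most abundant feature for each charge state. Collision cross section was obtained from the Mason-Schamp equation after 1/K0 calibration with three reference ions and run-wise alignment to the median iRT peptide deviation. Synthetic peptide pools (iRT standard spiked 1:40) were separated on a 120-min nanoflow C18 gradient at 60 °C, analysed on a timsTOF Pro/HT (dda-PASEF, nitrogen, ~2.4 mbar) and identified with MaxQuant.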

[1] = charge state: 2, modification: Citrullination (R)
[2] = charge state: 3, modification: Citrullination (R)
[3] = charge state: 2, modification: Succinyl
[4] = charge state: 3, modification: Succinyl
[5] = charge state: 2, modification: Nitro (Y)
[6] = charge state: 2, modification: hydroxyisobutyryl
[7] = charge state: 3, modification: hydroxyisobutyryl
[8] = charge state: 3, modification: Trimethyl (K)
[9] = charge state: 2, modification: Malonyl
[10] = charge state: 2, modification: Dimethyl (K)
[11] = charge state: 3, modification: Dimethyl (K)
[12] = charge state: 2, modification: Butyryl
[13] = charge state: 2, modification: Formyl
[14] = charge state: 2, modification: Methyl (K)
[15] = charge state: 3, modification: Methyl (K)
[16] = charge state: 2, modification: Trimethyl (K)
[17] = charge state: 2, modification: Biotin
[18] = charge state: 3, modification: Biotin
[19] = charge state: 3, modification: Crotonyl
[20] = charge state: 2, modification: Crotonyl
[21] = charge state: 2, modification: Hydroxyproline
[22] = charge state: 3, modification: Nitro (Y)
[23] = charge state: 2, modification: Propionyl
[24] = charge state: 2, modification: GlyGly (K)
[25] = charge state: 3, modification: GlyGly (K)

## SRFYSGFNSR [_SR(Citrullination (R))FYSGFNSR_]
[1]
  collision cross section: 364.39 ± 0.53 Å²

## AAYQAAIRGVGSAQSR [_AAYQAAIR(Citrullination (R))GVGSAQSR_]
[1]
  collision cross section: 418.72 ± 0.97 Å²
[2]
  collision cross section: 501.27 ± 7.8 Å²

## IINEPTAAAIAYGLDKK [_IINEPTAAAIAYGLDK(Succinyl)K_]
[3]
  collision cross section: 465.22 ± 1.4 Å²
[4]
  collision cross section: 564.64 ± 0.073 Å²

## AQLSQYFDAVK [_AQLSQY(Nitro (Y))FDAVK_]
[5]
  collision cross section: 386.8 ± 0.8 Å²

## PANEKATDDYHYEK [_PANEK(Succinyl)ATDDYHYEK_]
[3]
  collision cross section: 446.9 ± 1.1 Å²
[4]
  collision cross section: 500.9 ± 1.6 Å²

## VQGGALEDSQLVAGVAFKK [_VQGGALEDSQLVAGVAFK(hydroxyisobutyryl)K_]
[6]
  collision cross section: 481.48 Å²
[7]
  collision cross section: 565.17 ± 3.4 Å²

## IVEKYGYTHLSAGELLR [_IVEK(Trimethyl (K))YGYTHLSAGELLR_]
[8]
  collision cross section: 554.1 ± 0.025 Å²

## LTEKELAEAASK [_LTEK(Malonyl)ELAEAASK_]
[9]
  collision cross section: 390.08 ± 1.1 Å²
Charge state: 3, modification: Malonyl
  collision cross section: 448.74 ± 2.2 Å²

## IQQELQTAKK [_IQQELQTAK(hydroxyisobutyryl)K_]
[6]
  collision cross section: 386.63 ± 0.81 Å²

## SGKFTQQDIDEAK [_SGK(Dimethyl (K))FTQQDIDEAK_]
[10]
  collision cross section: 408.63 Å²
[11]
  collision cross section: 466.84 ± 1.6 Å²

## VFIGNLNTLVVKKK [_VFIGNLNTLVVK(Succinyl)KK_]
[4]
  collision cross section: 514.83 ± 3.9 Å²

## SLKLNTAEDAK [_SLK(Butyryl)LNTAEDAK_]
[12]
  collision cross section: 378.05 ± 1.5 Å²

## GTVPDDAVEALADSLGKK [_GTVPDDAVEALADSLGK(Formyl)K_]
[13]
  collision cross section: 449.34 ± 1.3 Å²
Charge state: 3, modification: Formyl
  collision cross section: 523.67 ± 1.8 Å²

## DLGKFQVATDALK [_DLGK(Malonyl)FQVATDALK_]
[9]
  collision cross section: 406.38 ± 0.61 Å²

## SEGFDTYR [_SEGFDTY(Nitro (Y))R_]
[5]
  collision cross section: 336.07 ± 0.95 Å²

## VGLQVVAVKAPGFGDNR [_VGLQVVAVK(hydroxyisobutyryl)APGFGDNR_]
[6]
  collision cross section: 453.58 ± 0.89 Å²
[7]
  collision cross section: 502.92 ± 2.8 Å²

## SDDESSQKDIK [_SDDESSQK(Methyl (K))DIK_]
[14]
  collision cross section: 375.97 ± 0.26 Å²
[15]
  collision cross section: 439.66 ± 3.3 Å²

## STGLELETPSLVPVKK [_STGLELETPSLVPVK(Trimethyl (K))K_]
[16]
  collision cross section: 461.73 ± 1.2 Å²
[8]
  collision cross section: 522.47 ± 0.88 Å²

## SLEEEGAAHSGKR [_SLEEEGAAHSGK(Trimethyl (K))R_]
[8]
  collision cross section: 465.19 ± 1.5 Å²

## KFGVLSDNFK [_K(Biotin)FGVLSDNFK_]
[17]
  collision cross section: 394.71 ± 3.8 Å²

## VGTASVLQPVKK [_VGTASVLQPVK(Butyryl)K_]
[12]
  collision cross section: 385.91 ± 0.85 Å²

## VGEFSGANKEK [_VGEFSGANK(hydroxyisobutyryl)EK_]
[6]
  collision cross section: 364.17 ± 0.9 Å²
[7]
  collision cross section: 444.77 Å²

## AVSILPLLGHGVPRLPPGR [_AVSILPLLGHGVPR(Citrullination (R))LPPGR_]
[2]
  collision cross section: 569.33 Å²

## GGPGGELPRGPQAGLGPR [_GGPGGELPR(Citrullination (R))GPQAGLGPR_]
[1]
  collision cross section: 413.18 ± 0.98 Å²
[2]
  collision cross section: 502.3 ± 0.77 Å²

## GEVGAGAGPGAQAGPSAKR [_GEVGAGAGPGAQAGPSAK(Biotin)R_]
[17]
  collision cross section: 440.5 ± 1.2 Å²
[18]
  collision cross section: 470.58 ± 2.6 Å²

## GEVGAGAGPGAQAGPSAKR [_GEVGAGAGPGAQAGPSAK(Gluratylation)R_]
Charge state: 2, modification: Glutarylation
  collision cross section: 425.64 ± 1.1 Å²
Charge state: 3, modification: Glutarylation
  collision cross section: 490.81 ± 0.95 Å²

## DASTLQSQKAEGTGDAK [_DASTLQSQK(hydroxyisobutyryl)AEGTGDAK_]
[6]
  collision cross section: 441.13 ± 0.33 Å²
[7]
  collision cross section: 514.99 ± 2.1 Å²

## TFGKAAGPSLSHTSGGTQSK [_TFGK(Crotonyl)AAGPSLSHTSGGTQSK_]
[19]
  collision cross section: 515.47 ± 1.3 Å²

## VTLEVGKVIQQGR [_VTLEVGK(Crotonyl)VIQQGR_]
[20]
  collision cross section: 412.55 ± 0.81 Å²
[19]
  collision cross section: 473.48 ± 1.6 Å²

## LLFSNTAAQKLR [_LLFSNTAAQK(Malonyl)LR_]
[9]
  collision cross section: 400.72 ± 0.029 Å²

## AAINQKLIETGER [_AAINQK(Trimethyl (K))LIETGER_]
[16]
  collision cross section: 420.64 ± 0.75 Å²
[8]
  collision cross section: 472.14 ± 3.7 Å²

## GPPGPAGPSGESR [_GPP(Hydroxyproline)GPAGPSGESR_]
[21]
  collision cross section: 344.62 ± 1.9 Å²

## ATVASSTQKFQDLGVK [_ATVASSTQK(Dimethyl (K))FQDLGVK_]
[10]
  collision cross section: 461.58 ± 1.2 Å²
[11]
  collision cross section: 471.81 ± 2.1 Å²

## DKALPLEAEVAPVK [_DK(Butyryl)ALPLEAEVAPVK_]
[12]
  collision cross section: 418.05 ± 4.9 Å²

## AAGQPYEQHAK [_AAGQPY(Nitro (Y))EQHAK_]
[5]
  collision cross section: 375.04 ± 1.1 Å²
[22]
  collision cross section: 431.09 ± 1.1 Å²

## ASTPGAAAQIQEVK [_AS(HexNAc (ST))TPGAAAQIQEVK_]
Charge state: 2, modification: HexNAc (ST)
  collision cross section: 409.94 ± 0.76 Å²

## VPGALAAAKAAK [_VP(Hydroxyproline)GALAAAKAAK_]
[21]
  collision cross section: 368.8 ± 0.56 Å²
Charge state: 3, modification: Hydroxyproline
  collision cross section: 444.57 ± 2.8 Å²

## FSAYIKNSNPALNDNLEK [_FSAYIK(Crotonyl)NSNPALNDNLEK_]
[20]
  collision cross section: 486.61 ± 2.3 Å²

## LEQVEKELLR [_LEQVEK(Butyryl)ELLR_]
[12]
  collision cross section: 391.61 ± 1.3 Å²

## GRGGPGPAQR [_GR(Methyl (R))GGPGPAQR_]
Charge state: 2, modification: Methyl (R)
  collision cross section: 327.6 ± 3 Å²
Charge state: 3, modification: Methyl (R)
  collision cross section: 431.84 ± 5.1 Å²

## GFALVGVGSEASSKK [_GFALVGVGSEASSK(Malonyl)K_]
[9]
  collision cross section: 414.22 ± 0.58 Å²

## VNVEAPDVNLEGLGGKLK [_VNVEAPDVNLEGLGGK(Dimethyl (K))LK_]
[10]
  collision cross section: 464.65 Å²
[11]
  collision cross section: 539.12 ± 0.61 Å²

## IHVQSSSDSSDEPAEKR [_IHVQSSSDSSDEPAEK(Trimethyl (K))R_]
[8]
  collision cross section: 528.1 ± 1.6 Å²

## LLEQKTQESQK [_LLEQK(Butyryl)TQESQK_]
[12]
  collision cross section: 398.26 ± 0.79 Å²

## GTITVSAQELKDNR [_GTITVSAQELK(Propionyl)DNR_]
[23]
  collision cross section: 415.55 Å²

## VQGGALEDSQLVAGVAFKK [_VQGGALEDSQLVAGVAFK(Methyl (K))K_]
[14]
  collision cross section: 497.72 Å²
[15]
  collision cross section: 546.3 ± 1.2 Å²

## AGPNASIISLKSDK [_AGPNASIISLK(Biotin)SDK_]
[17]
  collision cross section: 431.71 ± 1.7 Å²
[18]
  collision cross section: 469.41 Å²

## AYPLADAHLTK [_AY(Nitro (Y))PLADAHLTK_]
[5]
  collision cross section: 382.67 ± 0.55 Å²

## TPNLYIYSKK [_TPNLYIYSK(Methyl (K))K_]
[14]
  collision cross section: 377.12 ± 0.28 Å²
[15]
  collision cross section: 428.93 ± 5.2 Å²

## DKALPLEAEVAPVK [_DK(Formyl)ALPLEAEVAPVK_]
[13]
  collision cross section: 412.02 ± 0.74 Å²

## DYSSGFGGKYGVQADR [_DYSSGFGGK(hydroxyisobutyryl)YGVQADR_]
[6]
  collision cross section: 442.2 ± 0.79 Å²

## LDHLAEKFR [_LDHLAEK(Succinyl)FR_]
[3]
  collision cross section: 369.4 ± 0.74 Å²
[4]
  collision cross section: 444.17 ± 3.4 Å²

## YTCSFCGK [_Y(Nitro (Y))TCSFCGK_]
[5]
  collision cross section: 334.4 ± 0.71 Å²

## FDDTNPEKEEAK [_FDDTNPEK(Propionyl)EEAK_]
[23]
  collision cross section: 396.96 ± 0.65 Å²

## GAEKTEVAEPR [_GAEK(GlyGly (K))TEVAEPR_]
[24]
  collision cross section: 384.75 ± 0.88 Å²
[25]
  collision cross section: 448.79 ± 1.6 Å²

## KVQFAPEK [_KVQFAP(Hydroxyproline)EK_]
[21]
  collision cross section: 331.99 ± 1.4 Å²

## LAEEENKAK [_LAEEENK(Butyryl)AK_]
[12]
  collision cross section: 353.86 ± 0.84 Å²

## LEQVEKELLR [_LEQVEK(Biotin)ELLR_]
[17]
  collision cross section: 410.78 Å²

## GTITVSAQELKDNR [_GTITVSAQELK(Methyl (K))DNR_]
[14]
  collision cross section: 439.73 ± 1.7 Å²
[15]
  collision cross section: 485.75 ± 3.3 Å²

## IYHPNVDK [_IY(Nitro (Y))HPNVDK_]
[5]
  collision cross section: 340.06 ± 0.72 Å²
[22]
  collision cross section: 427.49 ± 0.064 Å²

## FTEYETQVK [_FTEY(Nitro (Y))ETQVK_]
[5]
  collision cross section: 363.94 ± 0.94 Å²

## IVEKYGYTHLSAGELLR [_IVEK(Acetyl (K))YGYTHLSAGELLR_]
Charge state: 3, modification: Acetyl (K)
  collision cross section: 562.4 ± 1.8 Å²

## STGLELETPSLVPVKK [_STGLELETPSLVPVK(Propionyl)K_]
[23]
  collision cross section: 435.15 Å²

## GAEKTEVAEPR [_GAEK(Dimethyl (K))TEVAEPR_]
[10]
  collision cross section: 374.44 ± 1.3 Å²
[11]
  collision cross section: 439.06 ± 1.6 Å²

## AQVLAGGRGK [_AQVLAGGR(Citrullination (R))GK_]
[1]
  collision cross section: 333.54 ± 0.75 Å²

## PPGFSPFR [_PP(Hydroxyproline)GFSPFR_]
[21]
  collision cross section: 331.47 ± 1.3 Å²

## VETTVTSLKTK [_VETTVTSLK(GlyGly (K))TK_]
[24]
  collision cross section: 391.21 ± 2 Å²
[25]
  collision cross section: 459.77 ± 2 Å²

## SLEEEGAAHSGKR [_SLEEEGAAHSGK(Butyryl)R_]
[12]
  collision cross section: 418.69 ± 0.77 Å²
Charge state: 3, modification: Butyryl
  collision cross section: 478.81 ± 1.8 Å²
